Results: PMC12802955

Target: H234A mutant of SARS-CoV-2 nsp15 with an N-terminal Strep-Tag II (SARS-CoV-2)
Experiment: cryo-EM structure

Substance: H234A mutant of SARS-CoV-2 nsp15 with an N-terminal Strep-Tag II (enzyme)
- stoichiometry N: 6
